Biological target: sTNF-R1 (soluble Tumor Necrosis Factor Receptor 1), spiked into buffer or human plasma (UniProt P19438)
Experiment: column run with spiked human plasma (9.74 ng/mL sTNF-R1), pre- against post-column concentration at each time point

UniProt P19438, sequence (P19438 30-211 limits assumed): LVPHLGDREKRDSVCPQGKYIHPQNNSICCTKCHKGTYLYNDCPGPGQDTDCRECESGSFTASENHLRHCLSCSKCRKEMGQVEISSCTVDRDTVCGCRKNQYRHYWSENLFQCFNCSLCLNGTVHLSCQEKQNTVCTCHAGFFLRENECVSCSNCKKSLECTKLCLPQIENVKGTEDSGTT

## recombinant single chain TNFα ligand (sc-TNFα ligand, comprising 3 TNFα monomers), covalently linked to agarose beads
  binding efficiency: > 95%
